Data reported in patent US20150203577A1 (Chugai, published 2015).

T1: mouse FcγRIII (mouse, UniProt P08508 31-215)
T1 construct: Extracellular domain with C-terminal His tag; also called mFcγRIII; mFcgRIII
T1 chain: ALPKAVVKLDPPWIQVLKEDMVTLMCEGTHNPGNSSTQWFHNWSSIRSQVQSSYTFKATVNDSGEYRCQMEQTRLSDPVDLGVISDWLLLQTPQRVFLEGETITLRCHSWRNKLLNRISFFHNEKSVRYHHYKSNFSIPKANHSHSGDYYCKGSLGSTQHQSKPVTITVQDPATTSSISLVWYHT

T2: mouse FcγRII (mouse, UniProt P08101 30-210)
T2 construct: Extracellular domain with C-terminal His tag; also called mFcγRII; mFcgRII
T2 sequence: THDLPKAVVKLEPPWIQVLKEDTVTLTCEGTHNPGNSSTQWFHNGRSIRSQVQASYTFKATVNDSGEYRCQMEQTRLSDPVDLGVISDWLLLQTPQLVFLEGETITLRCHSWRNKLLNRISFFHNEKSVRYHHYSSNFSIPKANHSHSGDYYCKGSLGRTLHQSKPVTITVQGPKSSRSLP


Legend:
mouse FcγRIII [1] = target: T1, mouse FcγRIII; assay: SPR (Biacore T200); KD of H237-MB630/MRAL-k0 / KD of variant
mouse FcγRII [2] = target: T2, mouse FcγRII; assay: as above
mouse FcγRIII [3] = target: T1, mouse FcγRIII; assay: SPR (Biacore T200); KD of H237-mIgG1/MRAL-k0 / KD of variant
mouse FcγRII [4] = target: T2, mouse FcγRII; assay: as above

| Binder | Relative mFcγRIII-binding activity (MB630 = 1) (mouse FcγRIII [1]) [fold] | Relative mFcγRII-binding activity (MB630 = 1) (mouse FcγRII [2]) [fold] | relative mFcγRIII-binding activity (mIgG1 = 1) (mouse FcγRIII [3]) [fold] | relative mFcγRII-binding activity (mIgG1 = 1) (mouse FcγRII [4]) [fold] |
| --- | --- | --- | --- | --- |
| MB822 (antibody, mouse IgG1, kappa, CH name; VH H237 + CH, L chain MRAL-k0; copies: 2 + 2) heavy: QVQLQESGPGLVKPSETLSLTCAVSGHSISHDHAWSWVRQPPGEGLEWIGFISYSGITNYNPSLQGRVTISRDNSKNTLYLQMNSLRAEDTAVYYCARSLARTTAMDYWGEGTLVTVSSAKTTPPSVYPLAPGSAAQTNSMVTLGCLVKGYFPEPVTVTWNSGSLSSGVHTFPAVLQSDLYTLSSSVTVPSSTWPSETVTCNVAHPASSTKVDKKIVPRDCGCKPCICEPNEVELVFIFPPKPKDVLTITLTPKVTCVVVDISKDDPEVQFSWFVDDVEVHTAQTQPREEQFNSTFRSVSELPIMHQDWLNGKEFKCRVNSDGFPAPIEKTISKTKGRPKAPQVYTIPPPKEQMAKDKVSLTCMITDFFPEDITVEWQWNGQPAENYKNTQPIMDTDGSYFVYSKLNVQKSNWEAGNTFTCSVLHEGLHNHHTEKSLSHSPGK light: not shown | 4.02 | 3.33 | 0.93 | 43.8 |
| MB825 (antibody, mouse IgG1, kappa, CH name; VH H237 + CH, L chain MRAL-k0; copies: 2 + 2) heavy: QVQLQESGPGLVKPSETLSLTCAVSGHSISHDHAWSWVRQPPGEGLEWIGFISYSGITNYNPSLQGRVTISRDNSKNTLYLQMNSLRAEDTAVYYCARSLARTTAMDYWGEGTLVTVSSAKTTPPSVYPLAPGSAAQTNSMVTLGCLVKGYFPEPVTVTWNSGSLSSGVHTFPAVLQSDLYTLSSSVTVPSSTWPSETVTCNVAHPASSTKVDKKIVPRDCGCKPCICEPNEVELVFIFPPKPKDVLTITLTPKVTCVVVDISKDDPEVQFSWFVDDVEVHTAQTQPREEQFNSTFRSVSELPIMHQDWLNGKEFKCRVNSDAFPAPIYKTISKTKGRPKAPQVYTIPPPKEQMAKDKVSLTCMITDFFPEDITVEWQWNGQPAENYKNTQPIMDTDGSYFVYSKLNVQKSNWEAGNTFTCSVLHEGLHNHHTEKSLSHSPGK light: not shown | 2.17 | 2.16 | 0.5 | 28.4 |
| MB826 (antibody, mouse IgG1, kappa, CH name; VH H237 + CH, L chain MRAL-k0; copies: 2 + 2) heavy: QVQLQESGPGLVKPSETLSLTCAVSGHSISHDHAWSWVRQPPGEGLEWIGFISYSGITNYNPSLQGRVTISRDNSKNTLYLQMNSLRAEDTAVYYCARSLARTTAMDYWGEGTLVTVSSAKTTPPSVYPLAPGSAAQTNSMVTLGCLVKGYFPEPVTVTWNSGSLSSGVHTFPAVLQSDLYTLSSSVTVPSSTWPSETVTCNVAHPASSTKVDKKIVPRDCGCKPCICEPNEVELVFIFPPKPKDVLTITLTPKVTCVVVDISKDDPEVQFSWFVDDVEVHTAQTQPREEQFNSTFRSVSELPIMHQDWLNGKEFKCRVNSAGFPAFIEKTISKTKGRPKAPQVYTIPPPKEQMAKDKVSLTCMITDFFPEDITVEWQWNGQPAENYKNTQPIMDTDGSYFVYSKLNVQKSNWEAGNTFTCSVLHEGLHNHHTEKSLSHSPGK light: not shown | 1.48 | 1.41 | 0.34 | 18.5 |
| MB823 (antibody, mouse IgG1, kappa, CH name; VH H237 + CH, L chain MRAL-k0; copies: 2 + 2) heavy: QVQLQESGPGLVKPSETLSLTCAVSGHSISHDHAWSWVRQPPGEGLEWIGFISYSGITNYNPSLQGRVTISRDNSKNTLYLQMNSLRAEDTAVYYCARSLARTTAMDYWGEGTLVTVSSAKTTPPSVYPLAPGSAAQTNSMVTLGCLVKGYFPEPVTVTWNSGSLSSGVHTFPAVLQSDLYTLSSSVTVPSSTWPSETVTCNVAHPASSTKVDKKIVPRDCGCKPCICEPNEVELVFIFPPKPKDVLTITLTPKVTCVVVDISKDDPEVQFSWFVDDVEVHTAQTQPREEQFNSTFRSVSELPIMHQDWLNGKEFKCRVNSDAFPAFIEKTISKTKGRPKAPQVYTIPPPKEQMAKDKVSLTCMITDFFPEDITVEWQWNGQPAENYKNTQPIMDTDGSYFVYSKLNVQKSNWEAGNTFTCSVLHEGLHNHHTEKSLSHSPGK light: not shown | 2.13 | 1.9 | 0.49 | 25 |
| MB824 (antibody, mouse IgG1, kappa, CH name; VH H237 + CH, L chain MRAL-k0; copies: 2 + 2) heavy: QVQLQESGPGLVKPSETLSLTCAVSGHSISHDHAWSWVRQPPGEGLEWIGFISYSGITNYNPSLQGRVTISRDNSKNTLYLQMNSLRAEDTAVYYCARSLARTTAMDYWGEGTLVTVSSAKTTPPSVYPLAPGSAAQTNSMVTLGCLVKGYFPEPVTVTWNSGSLSSGVHTFPAVLQSDLYTLSSSVTVPSSTWPSETVTCNVAHPASSTKVDKKIVPRDCGCKPCICEPNEVELVFIFPPKPKDVLTITLTPKVTCVVVDISKDDPEVQFSWFVDDVEVHTAQTQPREEQFNSTFRSVSELPIMHQDWLNGKEFKCRVNSDAFPAYIEKTISKTKGRPKAPQVYTIPPPKEQMAKDKVSLTCMITDFFPEDITVEWQWNGQPAENYKNTQPIMDTDGSYFVYSKLNVQKSNWEAGNTFTCSVLHEGLHNHHTEKSLSHSPGK light: not shown | 2.45 | 2.13 | 0.56 | 28 |

The remaining lines, values ahead:

| Relative mFcγRIII-binding activity (MB630 = 1) (mouse FcγRIII [1]) [fold] | Relative mFcγRII-binding activity (MB630 = 1) (mouse FcγRII [2]) [fold] | relative mFcγRIII-binding activity (mIgG1 = 1) (mouse FcγRIII [3]) [fold] | relative mFcγRII-binding activity (mIgG1 = 1) (mouse FcγRII [4]) [fold] | Binder |
| --- | --- | --- | --- | --- |
| 2.14 | 2.16 | 0.49 | 28.4 | MB828 (antibody, mouse IgG1, kappa, CH name; VH H237 + CH, L chain MRAL-k0; copies: 2 + 2) heavy: QVQLQESGPGLVKPSETLSLTCAVSGHSISHDHAWSWVRQPPGEGLEWIGFISYSGITNYNPSLQGRVTISRDNSKNTLYLQMNSLRAEDTAVYYCARSLARTTAMDYWGEGTLVTVSSAKTTPPSVYPLAPGSAAQTNSMVTLGCLVKGYFPEPVTVTWNSGSLSSGVHTFPAVLQSDLYTLSSSVTVPSSTWPSETVTCNVAHPASSTKVDKKIVPRDCGCKPCICEPNEVELVFIFPPKPKDVLTITLTPKVTCVVVDISKDDPEVQFSWFVDDVEVHTAQTQPREEQFNSTFRSVSELPIMHQDWLNGKEFKCRVNSAGFPAPIYKTISKTKGRPKAPQVYTIPPPKEQMAKDKVSLTCMITDFFPEDITVEWQWNGQPAENYKNTQPIMDTDGSYFVYSKLNVQKSNWEAGNTFTCSVLHEGLHNHHTEKSLSHSPGK light: not shown |
| 0.36 | 0.37 | 0.08 | 4.8 | MB830 (antibody, mouse IgG1, kappa, CH name; VH H237 + CH, L chain MRAL-k0; copies: 2 + 2) heavy: QVQLQESGPGLVKPSETLSLTCAVSGHSISHDHAWSWVRQPPGEGLEWIGFISYSGITNYNPSLQGRVTISRDNSKNTLYLQMNSLRAEDTAVYYCARSLARTTAMDYWGEGTLVTVSSAKTTPPSVYPLAPGSAAQTNSMVTLGCLVKGYFPEPVTVTWNSGSLSSGVHTFPAVLQSDLYTLSSSVTVPSSTWPSETVTCNVAHPASSTKVDKKIVPRDCGCKPCICEPNEVELVFIFPPKPKDVLTITLTPKVTCVVVDISKDDPEVQFSWFVDDVEVHTAQTQPREEQFNSTFRSVSELPIMHQDWLNGKEFKCRVNSAAFPAFIYKTISKTKGRPKAPQVYTIPPPKEQMAKDKVSLTCMITDFFPEDITVEWQWNGQPAENYKNTQPIMDTDGSYFVYSKLNVQKSNWEAGNTFTCSVLHEGLHNHHTEKSLSHSPGK light: not shown |
| 1.64 | 1.63 | 0.38 | 21.5 | MB827 (antibody, mouse IgG1, kappa, CH name; VH H237 + CH, L chain MRAL-k0; copies: 2 + 2) heavy: QVQLQESGPGLVKPSETLSLTCAVSGHSISHDHAWSWVRQPPGEGLEWIGFISYSGITNYNPSLQGRVTISRDNSKNTLYLQMNSLRAEDTAVYYCARSLARTTAMDYWGEGTLVTVSSAKTTPPSVYPLAPGSAAQTNSMVTLGCLVKGYFPEPVTVTWNSGSLSSGVHTFPAVLQSDLYTLSSSVTVPSSTWPSETVTCNVAHPASSTKVDKKIVPRDCGCKPCICEPNEVELVFIFPPKPKDVLTITLTPKVTCVVVDISKDDPEVQFSWFVDDVEVHTAQTQPREEQFNSTFRSVSELPIMHQDWLNGKEFKCRVNSAGFPAYIEKTISKTKGRPKAPQVYTIPPPKEQMAKDKVSLTCMITDFFPEDITVEWQWNGQPAENYKNTQPIMDTDGSYFVYSKLNVQKSNWEAGNTFTCSVLHEGLHNHHTEKSLSHSPGK light: not shown |
| 2.75 | 2.57 | 0.63 | 33.8 | MB829 (antibody, mouse IgG1, kappa, CH name; VH H237 + CH, L chain MRAL-k0; copies: 2 + 2) heavy: QVQLQESGPGLVKPSETLSLTCAVSGHSISHDHAWSWVRQPPGEGLEWIGFISYSGITNYNPSLQGRVTISRDNSKNTLYLQMNSLRAEDTAVYYCARSLARTTAMDYWGEGTLVTVSSAKTTPPSVYPLAPGSAAQTNSMVTLGCLVKGYFPEPVTVTWNSGSLSSGVHTFPAVLQSDLYTLSSSVTVPSSTWPSETVTCNVAHPASSTKVDKKIVPRDCGCKPCICEPNEVELVFIFPPKPKDVLTITLTPKVTCVVVDISKDDPEVQFSWFVDDVEVHTAQTQPREEQFNSTFRSVSELPIMHQDWLNGKEFKCRVNSAGFPAPIERTISKTKGRPKAPQVYTIPPPKEQMAKDKVSLTCMITDFFPEDITVEWQWNGQPAENYKNTQPIMDTDGSYFVYSKLNVQKSNWEAGNTFTCSVLHEGLHNHHTEKSLSHSPGK light: not shown |
